# Test results: patent US6469155 (UNIVERSITA DEGLI STUDI DI BOLOGNA, dated 2002)
# B1: HSV-1 glycoprotein D purified from HSV-1-infected BHK cells (ligand)
# chain: KYALVDASLKMADPNRFRGKDLPVLDQLTDPPGVRRVYHIQAGLPDPFQPPSLPITVYYAVLERACRSVLLNAPSEAPQIVRGASEDVRKQPYNLTIAWFRMGGNCAIPITVMEYTECSYNKSLGACPIRTQPRWNYYDSFSAVSEDNLGFLMHAPAFETAGTYLRLVKINDWTEITQFILEHRAKGSCKYALPLRIPPSACLSPQAYQQGVTVDSIGMLPRFIPENQRTVAVYSLKIAGWHGPKAPYTSTLLPPELSETPNATQPELAPEDPEDSALLEDPVGTVAPQIPPNWHIPSIQDAATPYHPPATPNNMGLIAGAVGGSLLAALVICGIVYWMRRHTQKAPKRIRLPHIREDDQPSSHQPLFY
# notes: also called gD; HSV gD
# B2: sV(HIgR)-Fc (Fc fusion)
# chain: QVVQVNDSMYGFIGTDVVLHCSFANPLPSVKITQVTWQKSTNGSKQNVAIYNPSMGVSVLAPYRERVEFLRPSFTDGTIRLSRLELEDEGVYICGFATFPTGNRESQLNLTVMA
# notes: Made in COS1 cells and purified on protein A; also called V1-Fc; soluble V domain of HIgR/PRR1; not shown: IgG Fc (Fc portion of human IgG1) from the Cos Fc Link (CFL) vector
# Key:
# [1] = target: T1, BSA (UniProt P02769 25-607); experiment: ELISA on immobilized gD
# T1 construct: Unrelated control molecule
# [2] = target: B1; experiment: ELISA, gD immobilized, detection with anti-human IgG-peroxidase
# T1 sequence (P02769 25-607 limits assumed): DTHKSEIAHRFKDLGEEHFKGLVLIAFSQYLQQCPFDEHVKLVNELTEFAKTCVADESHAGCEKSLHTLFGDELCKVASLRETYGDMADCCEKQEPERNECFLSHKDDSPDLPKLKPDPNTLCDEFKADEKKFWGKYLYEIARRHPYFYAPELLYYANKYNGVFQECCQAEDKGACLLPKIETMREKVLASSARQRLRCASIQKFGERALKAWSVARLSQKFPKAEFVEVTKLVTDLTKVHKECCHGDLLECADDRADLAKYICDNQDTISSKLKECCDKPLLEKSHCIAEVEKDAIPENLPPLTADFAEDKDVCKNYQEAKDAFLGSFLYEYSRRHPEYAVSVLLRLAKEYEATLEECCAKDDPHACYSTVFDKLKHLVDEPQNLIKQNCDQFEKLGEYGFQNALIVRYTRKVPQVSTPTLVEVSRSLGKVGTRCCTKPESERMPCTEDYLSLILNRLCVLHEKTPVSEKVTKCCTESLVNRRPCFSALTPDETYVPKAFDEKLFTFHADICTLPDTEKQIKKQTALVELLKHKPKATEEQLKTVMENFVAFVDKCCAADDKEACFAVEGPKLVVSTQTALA
Binder,binding result [1],reduction in the level of saturable binding relative to sVCC(HIgR)-Fc [2]
B1,no binding,–
B2,–,~30%
